Data set [1] deals with Gal4 activation domain-E2F-1 hybrid protein (pGAD.E2F-1) (yeast) (UniProt P04386). The data set can be described thus: cell-based or functional assay.
The target in another data set is GST-E2F-1(89-437) (UniProt Q01094 Q01094:89-437). The data set can be described thus: EMSA. The note with it: tags: GST.
Data set [2] deals with DP-1(84-249)/E2F-1(89-437) heteromer (Mus musculus / Homo sapiens?, UniProt Q08639;Q01094 Q08639:84-249,Q01094:89-437). The experiment in a line: EMSA; greater than E2F-1 alone. The note with it: tags: DP-1 thrombin-released or GST; E2F-1 GST. The protocol: Cell extracts were prepared as previously described (La Thangue et al., 1990). Gel retardation in F9 EC and HeLa cell extracts (about 6.0 µg) in the presence of anti-DP-1 was performed as previously described (Girling et al., 1993), and immunoprecipitation with anti-DP-1 from HeLa cell extracts was performed by standard procedures. The immunoprecipitates were treated with 1% DOC and 1.5% NP40 and the detergent released material assayed for DRTF1/E2F by gel retardation and the presence of E2F-1 by immunoblotting with the anti-E2F-1 monoclonal antibody SQ41 (Kaelin et al., 1992). The anti-DP-1 antibodies, anti-peptide A and anti-peptide 18, have been previously described (Girling et al., 1993). Rabbit anti-E2F-1 antiserum (antiserum 134) was raised against a peptide which represents E2F-1 amino acid sequence 315 to 323. The sequences of the binding sites used to assess DNA binding specificity were derived from the adenovirus E2A promoter (−71 to −50) and were as follows: WT; […] (SEQ ID NO: 7); 62/60, […]; (SEQ ID NO: 8); 63, […] (SEQ ID NO: 9); 64, […] (SEQ ID NO: 10). In FIG. 2a (tracks 1 to 4), the adenovirus E2A promoter (−96 to +68) was used; in all other cases, the distal E2F site in the E2A promoter (sequences −71 to −50) was used. About 100-fold excess of competing binding sites were used in the gel retardation assays. […]
Chain of DP-1(84-249)/E2F-1(89-437) heteromer (Q01094 89-437, one chain of several): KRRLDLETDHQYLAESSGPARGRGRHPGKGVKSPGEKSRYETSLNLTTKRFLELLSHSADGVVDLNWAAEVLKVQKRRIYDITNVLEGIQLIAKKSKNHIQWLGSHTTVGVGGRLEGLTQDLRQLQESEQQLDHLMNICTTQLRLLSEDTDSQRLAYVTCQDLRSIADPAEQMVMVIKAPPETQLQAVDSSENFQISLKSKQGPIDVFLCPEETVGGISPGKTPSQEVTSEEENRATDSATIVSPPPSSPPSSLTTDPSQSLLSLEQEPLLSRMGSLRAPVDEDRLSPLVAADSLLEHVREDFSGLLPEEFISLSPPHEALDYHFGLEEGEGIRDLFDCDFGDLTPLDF

The target in data set [3] is DP-1(84-204)/E2F-1(89-437) heteromer (Mus musculus / Homo sapiens?, UniProt Q08639;Q01094 Q08639:84-204,Q01094:89-437). The experiment in a line: EMSA; less than with DP-1 84-249. To be noted: tags: DP-1 thrombin-released or GST; E2F-1 GST. The protocol:
Cell extracts were prepared as previously described (La Thangue et al., 1990). Gel retardation in F9 EC and HeLa cell extracts (about 6.0 µg) in the presence of anti-DP-1 was performed as previously described (Girling et al., 1993), and immunoprecipitation with anti-DP-1 from HeLa cell extracts was performed by standard procedures. The immunoprecipitates were treated with 1% DOC and 1.5% NP40 and the detergent released material assayed for DRTF1/E2F by gel retardation and the presence of E2F-1 by immunoblotting with the anti-E2F-1 monoclonal antibody SQ41 (Kaelin et al., 1992). The anti-DP-1 antibodies, anti-peptide A and anti-peptide 18, have been previously described (Girling et al., 1993). Rabbit anti-E2F-1 antiserum (antiserum 134) was raised against a peptide which represents E2F-1 amino acid sequence 315 to 323. The sequences of the binding sites used to assess DNA binding specificity were derived from the adenovirus E2A promoter (−71 to −50) and were as follows: WT; […] (SEQ ID NO: 7); 62/60, […]; (SEQ ID NO: 8); 63, […] (SEQ ID NO: 9); 64, […] (SEQ ID NO: 10). In FIG. 2a (tracks 1 to 4), the adenovirus E2A promoter (−96 to +68) was used; in all other cases, the distal E2F site in the E2A promoter (sequences −71 to −50) was used. About 100-fold excess of competing binding sites were used in the gel retardation assays.
On the technique in general: In EMSA bound probe runs differently from free probe, usually more slowly.

The target of data set [4] is DP-1(59-410)/E2F-1(89-437) heteromer (Mus musculus / Homo sapiens?, UniProt Q08639;Q01094 Q08639:59-410,Q01094:89-437). The data set can be described thus: EMSA; synergistic; anti-E2F-1 supershift, anti-DP-1 inhibits. The note with it: tags: GST on both.
Chain of DP-1(59-410)/E2F-1(89-437) heteromer (Q08639 59-410, chain 1 of 2): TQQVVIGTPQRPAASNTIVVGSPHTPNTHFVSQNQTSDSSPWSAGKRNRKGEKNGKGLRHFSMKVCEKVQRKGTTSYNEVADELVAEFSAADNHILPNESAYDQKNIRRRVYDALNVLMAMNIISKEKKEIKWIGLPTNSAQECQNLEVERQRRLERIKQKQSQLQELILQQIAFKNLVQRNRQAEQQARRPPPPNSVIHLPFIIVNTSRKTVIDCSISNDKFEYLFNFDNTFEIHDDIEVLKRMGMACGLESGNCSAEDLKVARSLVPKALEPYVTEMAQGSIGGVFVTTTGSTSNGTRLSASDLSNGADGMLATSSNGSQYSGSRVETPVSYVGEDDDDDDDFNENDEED
Chain of DP-1(59-410)/E2F-1(89-437) heteromer (Q01094 89-437, chain 2 of 2): as the sequence (Q01094 89-437, one chain of several) above
Another data set has as its target T1, wild-type E2F-1^1-437 (Homo sapiens (Human), UniProt Q01094 1-437, radiolabelled with 35S methionine (in vitro translated form) ; chain 1: radiolabelled with 35S methionine (in vitro translated form); letters unchanged).
T1 construct: Translated in reticulocyte lysate for the pull-down; The same full-length protein was expressed from pE2F-1/pCMV E2F-1 in the transfection assays; also called in vitro transcribed and translated E2F-1 polypeptide; pE2F-1
The data set can be described thus: GST pull-down (glutathione-agarose) of in vitro translated 35S-labelled E2F-1. The text has this:
DP-1 and E2F-1 were expressed as, and released from, GST fusion proteins as previously described (Girling et al., 1993). About 100-fold excess of the competing binding sites were used in gel retardation assays, with the binding site taken from the adenovirus E2A promoter (−71 to −50). The wild-type E2F-1 coding sequence was transcribed and further translated using reticulocyte lysate (Promega) and radiolabelled with ^35S methionine. In the dimerization assay (FIG. 2d), GST-DP-1 fusion protein was incubated with E2F-1 polypeptide for 30 min at 30° C., collected with glutathione-agarose (Sigma), and washed repeatedly with 0.1% NF40-in PBSA. Bound E2F-1 polypeptide was released by denaturation in SDS sample buffer and resolved in a 10% polyacrylamide gel.
GST fusion proteins, or GST protein along (track 2), were collected with glutathione-agarose beads and bound E2F-1 polypeptide released.

The text below walks through data of patent US7160677, “Transcription factor DP-1” (Topotarget UK Limited).

T1 sequence (Q01094 whole entry): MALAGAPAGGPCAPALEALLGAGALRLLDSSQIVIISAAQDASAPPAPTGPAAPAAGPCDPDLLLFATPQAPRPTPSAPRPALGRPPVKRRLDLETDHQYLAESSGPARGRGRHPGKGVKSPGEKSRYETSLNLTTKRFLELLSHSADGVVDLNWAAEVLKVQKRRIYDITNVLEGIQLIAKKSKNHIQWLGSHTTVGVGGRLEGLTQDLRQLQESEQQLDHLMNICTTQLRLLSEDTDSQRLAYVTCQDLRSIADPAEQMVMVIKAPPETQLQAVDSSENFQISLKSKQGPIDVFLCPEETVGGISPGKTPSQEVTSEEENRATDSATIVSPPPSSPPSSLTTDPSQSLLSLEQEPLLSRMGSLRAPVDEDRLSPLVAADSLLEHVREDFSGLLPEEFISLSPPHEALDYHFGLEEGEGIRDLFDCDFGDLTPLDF
Chain of GST-E2F-1(89-437) (Q01094 89-437, one chain of several): as the sequence (Q01094 89-437, one chain of several) above
Chain of DP-1(84-204)/E2F-1(89-437) heteromer (Q01094 89-437, one chain of several): as above

Consider “LexA-DP-1 hybrid protein (pLEX.DP-1) (from UniProt P0A7C2 1-202)”, for which, in data set [1], the activity of p4xWT CYC1 (E2F site-dependent transcription in yeast, β-galactosidase) is 50 fold and the transcriptional activity of the LexA reporter construct (yeast two-hybrid, β-galactosidase) was 75 fold.

B1: E2A distal E2F site WT (-71 to -50) (dsDNA)
DNA 1: TAGTTTTCGCGCTTAAATTTGA
DNA 2: TCAAATTTAAGCGCGAAAACTA
Regarding B1, the binding result (with GST-E2F-1(89-437); in data set [2]; in data set [3]; in data set [4]) was “binds” in each case.

B2: GST-DP-1^84-166 (other)
chain: PNTHFVSQNQTSDSSPWSAGKRNRKGEKNGKGLRHFSMKVCEKVQRKGTTSYNEVADELVAEFSAADNHILPNESAYDQKNIR
notes: Uncleaved GST fusion; not shown: glutathione-S-transferase (GST)
B2: the binding result with wild-type E2F-1^1-437 was “no binding (tested: about 2 µg GST fusion protein)”.
